Consider 20 sequences from the DeepSol protein solubility set.

A short description of the data set: soluble on expression in E. coli; label from the status in PepcDB or PDB records.
In the case of “MIETEKKEERVLLIGVELQGMDSFDLSMEELASLAKTAGAVVVDSYRQKREKYDSKTFVGSGKLEEIALMVDAEEITTVIVNNRLTPRQNVNLEEVLGVKVIDRMQLILDIFAMRARSHEGKLQVHLAQLKYLLPRLVGQGIMLSRQAGGIGSRGPGESQLELNRRSVRNQITDIERQLKVVEKNRATVREKRLESSTFKIGLIGYTNAGKSTIMNILTSKTQYEADELFATLDATTKSIHLGGNLQVTLTDTVGFIQDLPTELVSSFKSTLEESKHVDLLVHVIDASNPYHEEHEKTVLSIMKDLDMEDIPHLTLYNKADLVEDFTPTQTPYTLISAKSEDSRENLQALLLDKIKEIFEAFTLRVPFSKSYKIHDLESVAILEERDYQEDGEVITGYISEKNKWRLEEFYDLEHHHHHH”, the “soluble on expression in E. coli” value is “not soluble”. As for “MIFKQNQNYWAVFDANKETLIVQTCSGLGLTAIDHLYPPHILPLDTDNETLGTTVLQALANSRTFVYDSPEDQDFFDTEKIRQRYEDWVAKLCGNLGYKTRRALFKNMMSVDIWLHNGCLKISPSRHVKLEAWNAIDADDVILSLDNSPEEIGAGLKLALSHCR”, the entry is “not soluble”; as for “MIFKSNFTTRAGLAALALSFAAAGAPSVASAQQAGGKPPQGWFKVCTKQEDNDVCIVQNLLTANNGQLVTAVGLITVSGKVNRKVMQVSVPSARMIPPGVQMQIDGGKGVKLDYAICMPDKCVAEAPLSDALIAQLKKGNEVVFTSVNFQRAPNPIKMSLEGFTGVFDGEPIEQSQLEERQRLLQEEMQKKAEDARKKLEEAQKAAKQQ”, “not soluble”; as for “MIFMRKVVAEVSIIPLGKGASVSKYVKKAIEVFKKYDLKVETNAMGTVLEGDLDEILKAFKEAHSTVLNDVDRVVSSLKIDERKDKENTIERKLKAIGEL”, “soluble”. As for “MIFRSFFTHRIASMETKRLKLIPACLERAEEAHQAVVRSQKTLEVYLPWVPHVLTLEAMIEGTEKAIANFENFEEELRYYIIEK”, the entry is “not soluble”; as for “MIFVLGGTSDSLLISDWLTETKRPFILSVATDYGETLAKQHAEKVFCGRLAKEAMLAKWQLEQIKLVIDATHPFATIVSETAMEACKEAGIPYIRFERTSEQTDNTYLVDDINEACKVAAKLGQRIFLTTGSKNLPEFVAGLKQQHIIARILPVSDVIRSAEELGLVADQIIGMKGPFTKEANRTQLEMTQADVLITKESGKQGGFQEKLTAAAELNIPVIVIRRKKLNYPIEINHLTELPEILTQLEV”, “not soluble”.

As for “MIGKNIKSLRKTHDLTQLEFARIVGISRNSLSRYENGTSSVSTELIDIICQKFNVSYVDIVGEDKMLNPVEDYELTLKIEIVKERGANLLSRLYRYQDSQGISIDDESNPWILMSDDLSDLIHTNIYLVETFDEIERYSGYLDGIERMLEISEKRMVA”, the “soluble on expression in E. coli” value is listed as “soluble”. In the case of “MIGNVKMEYASASEEYLTESEMDEYLDDLRSKIPSFIVELLKNNLKNRKLTRPQLDKIVGRVSDLYFGKKPEDKKAAELTNKINDLSQKLDALMKVATISSATKVSDDIKKELNYLDDEKIEVPEISKAVEVPEIIEEPEISIEPVEEPVVEPVKIIEKQTVEPIIEFKEEPKIEKVVSKVPLEIEEGNNMRPELTPAVETTARLQELPEDTLSTMLVFKWLEFLISRVGTGNLIDVLDYYHNLGWVSGKAISKLMKVSKNMKYFHEDIDWKANECMAPEDHVVSLLYIEKLAGRPIAVEELEGMEREINRIKKWAEELQKM”, the “soluble on expression in E. coli” value is “not soluble”.

With “MIGTAVKELLLEKQETFLVPAENVANVMCLNPLSHAALVLSQVRYSKIPVLDKGDRFVGLIGLTDVVDKMFDLTSVDFEKLNEFTVADVMEVNVPVIGESWDLEEVLHLLVDASFLPVVDDNQRFKGIITRKEILKAVNHMAHELEKHHLVLPKSEEEMKVI”, the “soluble on expression in E. coli” value is listed as “not soluble”.

Regarding “MIGYEFFVSEKLENCKYKYIKAINDYIKQEKSHIIGIDLGKYHYLTASNIDRSFVFVDKHNTLFHLFRKYERRIANKQYDNSEAYSKLKTGLKSHINQVVNEMLEQTSNRFQTVFALDDHGSSHLSFPSLVFDLTYFAIKQRKNESDEILIVDESFTSIECPICHDRNQYNRTNKNKFKCTKCGFIHQNNDIVAASNIAKKGQLLNSLEHHHHHH”, the “soluble on expression in E. coli” value was “not soluble”. As for “MIHGIGVDLIEIDRIQALYSKQPKLVERILTKNEQHKFNNFTHEQRKIEFLAGRFATKEAFSKALGTGLGKHVAFNDIDCYNDELGKPKIDYEGFIVHVSISHTEHYAMSQVVLEKSAF”, the entry is “not soluble”; as for “MIIGSRRARSDKYVKIAHLMQCTQPWFNHFLPEPESPQASTYKMLKPVSWLPRPVKSVSFYPSRRTAVARNGHNLRLQWRGPLPELHWHSRSLQHTQH”, “not soluble”; as for “MIIGYARVSSLDQNLERQLENLKTFGAEKIFTEKQSGKSIENRPILQKALNFVRMGDRFIVESIDRLGRNYNEVIHTVNYLKDKEVQLMITSLPMMNEVIGNPLLDKFMKDLIIQILAMVSEQERNESKRRQAQGIQVAKEKGVYKGRPLLYSPNAKDPQKRVIYHRVVEMLEEGQAISKIAKEVNITRQTVYRIKHDNGLSSHHHHHH”, “soluble”. The same measure for “MIIKGRAHKFGDDVDTDAIIPGPYLRTTDPYELASHCMAGIDENFPKKVKEGDVIVAGENFGCGSSREQAVIAIKYCGIKAVIAKSFARIFYRNAINVGLIPIIANTDEIKDGDIVEIDLDKEEIVITNKNKTIKCETPKGLEREILAAGGLVNYLKKRKLIQSKKGVKT”: “soluble”; for “MIILMSKPLSEKKTSNNISDLIYGLLKEDIFNFVLKPGQRFTETDLSERYEASRTPIRQALYRLEQEGFVHVHFRSGWEIRPLEFKYYQELFDLRMILEKEAVKRLCELEHPEQLPALIELKKMWLIAPVDYLTDTKTLVLQSEDFHCALVRAAGNQQIAKIHQEASEKIRIVLSLGAMKEFDIAHAYQDHGAILQCILNKDAEQAIHLAEHHVLESIHEVKNITLQMISAIH”: “not soluble”. As to “MIISAEGDVSIHHCFEAMLISLQEDYRQNTLRQLSRDDIKAGINYVKHYGKYKERTVRVLITALEAPQLYTACFSSNHGIKELAYQLEALGENRTRITYSYDYHPLDIFQKANQFIVGKLFKKSLERQSQAQLAALIQYAKQLQQPSSL”, the “soluble on expression in E. coli” value is on record as “not soluble”.

For “MIITKNISLPELYQEWLDLKIMPSNRSDVTKKKYLSRKVTLEKLFGDKPISQIRPSEYQRIMNNYGQRVSRNFLGRLNTGVKQSLQMAIADKVMIEDFTQNVELFSTVKLEHHHHHH”, the “soluble on expression in E. coli” value is recorded as “soluble”. As for “MIKIDDEAITFVVQGPVQASASRQQIAGITEQCLNSIRRFFPKSTIILSTWKGQPLDGLDYDQVLELDDPGANTVFYDGQPIKLNNNRQMYSTHMGLKAVKTPYAVKLRTDNLLTGRQFVELYERYADLPRAQNYQFLTQRVLTSSTFFISSHYGHPVHFHKSDLFDFGLTQDLLTIWSDRWIPELHFTLKPGYKARHPATEQVLCLNWISALLDEEHHIESKTCDHAGLGENFWPQFMANNLLMDCPENIGLDVTERFYKRGNLALEYDLKDWLHLNQITSIPYDKKRLYRYYRNQIGRILKKIHSFN”, the entry is “not soluble”. As for “MIKSALLVLEDGTQFHGRAIGAEGTAVGEVVFNTSMTGYQEILTDPSYSRQIVTLTYPHIGNVGTNASDEESSAVHAQGLVIRDLPLIASNYRNEEGLSEYLKRHNIVAIADIDTRKLTRLLREKGAQNGCIIVGELSDAALALEKAKAFPGLKGMDLAKEVTTKEMYQWLQGSWTLEGDLPAAKQPEDLPFHVVAYDYGVKRNILRMLVDRGCRLTVVPAQTPAEDVLKLNPDGIFLSNGPGDPEPCDYAITAIKRFLETDIPVFGICLGHQLLALASGAKTVKMKFGHHGGNHPVKDLDASCVMITAQNHGFAVDETSLPSNLRTTHVSLFDGSLQGLHRTDKAAFSFQGHPEASPGPHDAAPLFDHFIELIEAYRASSVSLNCSNSHK”, the entry is “not soluble”; as for “MIKVDHRPLYLQVIDKLKHDMEAGVYEEGEKLPSEFELSKQLGVSRATLREALRLLEEEGVVVRRHGVGTFVHTKPLFSAGIEELYSVTDMIRHADMEPGTIFLSSYQIEATDDDKRRFQTDNLDQLMMIERVRTADGVPIVYCLDKLPAELIGQHSVHEINSILDHLESGSDRMITHAVTTIEPIGFHEKVSEILECEAETGLLLLKQMHYDQYDTPVLYSYNYFRADKFTFHVVRKRVKA”, “not soluble”.
